The RNAGym collection of RNA variant scans (doi:10.1073/pnas.2313332121)
Fewer inactive variants are shown than the library holds.

B1: TPR 5TU (parent)
chain: GGAUCUUCUCGAUCUAACAAAAAAGACAAAUCUGCCACAAAGCUUGAGAGCAUCUUCGGAUGCAGAGGCGGCAGCCUUCGGUGGCGCGAUAGCGCCAACGUUCUCAACUAUGACACGCAAAACGCGUGCUCCGUUGAAUGGAGUUUAUCAUG

Variants of: B1
Experiment: polymerase ribozyme fitness, log enrichment relative to wild type (log ratio); higher = more active; in vitro selection for triplet polymerase activity
How it was run: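 Fitness compares each genotype's enrichment to that of the wild type on a logarithmic scale, averaging replicates with inverse-variance weights. The logarithm is base 2. Enrichment came from Illumina sequencing of input and output libraries after one triplicate round of in vitro selection, which included frozen incubation at −7 °C, of PCR-built, transcribed mutant libraries of each subunit of a heterodimeric triplet polymerase ribozyme. Only genotypes with ≥10 input reads and ≥1 read per output were kept.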

Variant | polymerase ribozyme fitness (log ratio)
C18A G50A G68A C96G C99U G136A | ≤ -4.2
A19C A22U C57G C87U G94U C103G U104G C129A | ≤ -4.2
C18A C38A A47C C93A A98U | -3.69
A19U C57G A121G A150G | -1.93
C18G C72G G84C | ≤ -4.2
A17U U53A | -0.974
A19G C93A A113U G141C | ≤ -4.2
C18U C36U C75A C79U C118A C131U | ≤ -4.2
C18G C35U U55A G62U G68U C75U C96U | ≤ -4.2
A19C A28C A52G U56A G83A A142C | ≤ -4.2
A17U U77G C87G G92C A119C | ≤ -4.2
C18G A19C U33G C36U G46A C87U A110G | ≤ -4.2
A19C A66G | -3.95
C18G C27G U53G A120C | ≤ -4.2
C18G C51U C85A A107U C118U A137U | ≤ -4.2
A19G A26U U45A A52U U61A G70C C85G A115U G141U | ≤ -4.2
C18G A21U C93U G141U | 0.314
C18A A20U A24G A26G A29U C57A U77A G88C | ≤ -4.2
A19G C75U C93A | -3.68
A19U C35U G86A A119G G141A | -3.69
C18U A19G G50A C54U G67C C69A G92C C114A A120U U134G | ≤ -4.2
A19G C54A | -1.26
C18G G84A | -1.41
A20C A21U A30G A40G G94U A121G A137U | ≤ -4.2

Variant | polymerase ribozyme fitness (log ratio)
A19C C32U A37G A52G C87G A89U U90A C125G U139G | ≤ -4.2
A20C G83C | -1.3
C18A A20G A24C C27G U82C G126U | ≤ -4.2
A19U G83A U90A G94U | ≤ -4.2
A19G G81C G92U U134G | -2.69
A19U G25U C38G A52C C75U C118G C131A A142U | ≤ -4.2
A19U A20C U109G | -2.07
A20C C85A G126C | 0.52
A19G G48A G62U A73G C96A A119G | ≤ -4.2
A20C G48U G100C C116A | ≤ -4.2
A19G C85A G86U C93U U148A | ≤ -4.2
C18A G86A C96U A115C | -2.7
A19U A142C | -1.11
A19U A41C G50C C96U C99U U101G | ≤ -4.2
A19C G59A G84U A98G A115U | -3.52
A20C A40C U56G C96G A121U | -1.15
A19U A21U A39G C43A U45A A91G | ≤ -4.2
A19U A37U G67C C85A U109G U148C | ≤ -4.2
A19C C35A | -3.08
A19G U45G U90G G124A | ≤ -4.2
C18G C57A A147U | 0.567
C18G U61G U77G U82C C103G | ≤ -4.2
A19U U56A G86A A107G | ≤ -4.2
A20C C38G G70A C87U C108U | ≤ -4.2

Variant | polymerase ribozyme fitness (log ratio)
C18G G141C | -1.51
C18U A26C C38U U78G A98U U145G U151A | ≤ -4.2
C18U C54U C57A G83U | -1.15
A20C C38U C95U A122C U134C | -1.35
C18G C32G U55A G83U G88U A113C A138C | ≤ -4.2
A19U C93U A97U G141C | -2.49
C18U G58A | -0.517
A19C U56A G65A C87U A97U | -1.81
C18U C36A C38A U55A G84U | ≤ -4.2
A19C A26C C38A C43G G74U G80C | ≤ -4.2
A20C C96U A142C | -1.62
A19U A20U C85U C118U | -2.63
A19C A22U C38G G58C C85U U102A | -1.87
A19G C57U G65A U102A G126U | -3.89
A19C C95A C96U C125G C149U | ≤ -4.2
A19G C51U C95A A115U | -3.61
A19C G65U A73U G88A C114A U148C | ≤ -4.2
C18U G140U | -3.29
C18G C54U U61G C87U C95U | -3.85
A19U A91G | -2.85
A19U A91U | ≤ -4.2
A19U A22G G67U C93A G126A C131A | ≤ -4.2
A19U U31C C132G | -2.74
C18U C38G A52G U101G | -1.69

Variant | polymerase ribozyme fitness (log ratio)
C18G A20C U56G G94A | -1.51
C18A A20U A47G A52C G65A G83U U101C G136U | ≤ -4.2
A19G U102G | -3.38
A19U U53G U55A C85G | ≤ -4.2
C18U G48U C85A U144C | -2.83
C18U A22C A40U A89C | -0.248
A19C C35U A52C U53A C79A A97U A98G C118A U139G A147G | ≤ -4.2
A19U C27U A47U G50U C79G C93G G141A U145G | ≤ -4.2
C18U A41G G46A U56G C85A U135G U144C | ≤ -4.2
C18U A29U A91U A107U | ≤ -4.2
C18U C35A A39U G50U U55G C108U | ≤ -4.2
A19U A40C G94A A107U | ≤ -4.2
A19U U55C C57A A66C C85G U109G | ≤ -4.2
A19G A26U G84A A147G | -3.45
A20C G86C C87U G88A C95G | ≤ -4.2
A19G A91C | -4.15
A19U A22G A52C C114A A142G | ≤ -4.2
A19C C38G G70A G80C A98G C118U A150U | -3.77
C18U A19G A21C C35U U55A G92C A147U | -2.94
C18A G83A A107C A110C | ≤ -4.2
C18U A52C G86A C99U U146G | -4.02
C18U A30U C99G A106U | ≤ -4.2
A19G C38U C76G C93A C103A G143U | ≤ -4.2
A19U U55G G88U U104G | ≤ -4.2

Variant | polymerase ribozyme fitness (log ratio)
A20C A24U C57U | -0.111
A19U U31A A41G C87G G124U | -4.17
C18U A113G C123A | -3.22
A19C A91U | -3.83
C18G A26C A107G | ≤ -4.2
A19G A49G U56A A66G G67C C108U G136A C149A G152U | ≤ -4.2
A19U A20U C57G G58A G88U G92C C125A C131U U148C C149A | ≤ -4.2
C18G A29U U44G U55G C57A C93U U104G | ≤ -4.2
A19U G92U U102A U146C | -2.35
A19U G94A A121U C125G | -0.351
C18G G46U A73U C85U G92U C125A | ≤ -4.2
A19G C27U G59U G94C | -2.46
C18U U55A A73G G86A G94C | ≤ -4.2
A19C A49C A60G U101G G141A | -2.8
A19G U53A C57U C96A G100C U134C G143C | ≤ -4.2
A19U A37C U82G A89U C95G A97C A107U U127A | ≤ -4.2
C18G C32U A37G A60G C75U C96U | ≤ -4.2
A20C G50A C63A C85U G117U | -1.09
A20C A26G U56A C63U G67U G80A C85U G86C C103G | ≤ -4.2
A19U A26U | -2.56
A19C U55G C93U G136U | -3.02
C18G G92A | -3.23
A19U G59A G88U A89G G94U A113G | ≤ -4.2
A19C U56A C85G U148A | -3.88

Variant | polymerase ribozyme fitness (log ratio)
C18A A73U G86A A110G | ≤ -4.2
A19U A20U A24G G42C U55A C57A U78C G86U A119U | ≤ -4.2
C18U A91G A120G C132U G141C | ≤ -4.2
A19U C95U C99A U145A | -2.13
C18G A21U | -0.776
A19G U82C C116U C125A G141U | ≤ -4.2
A19U A23U A26U C54U A60G A120U U151G | ≤ -4.2
A19U G62A A73U A110G A121U | ≤ -4.2
A19U A49U G71A C93U U102G C103G | ≤ -4.2
A19U U33G A40C C87U C93U C103A | ≤ -4.2
A19U U104A | -0.0348
A19G G25U G50A C93U A120G | ≤ -4.2
C18U C85A | -0.837
A19C C63U A120G U145A | 0.504
C18U C51A A52G A122C | -1.98
C18G C27U A64C C93U | ≤ -4.2
C18G C57U G59A G80A G86U | -2.45
A19G A20U U55A C87A C131U U148A | ≤ -4.2
A20C C54A G84U C116U | -3.08
C18U A52C U145G | -2.09
A19U A39U U56A | -2.83
A19U A30U C36G A97U | ≤ -4.2
A19G | -0.472
A19C | 0.425

Variant | polymerase ribozyme fitness (log ratio)
A19U | -0.43
A19U U53A G81U C96A | -2.73
C18G A41U A91G U148G | ≤ -4.2
C18G C123G | -0.253
A20C C149G | -2.96
C18G A40U A47U U101G | -0.397
A19U A21U A30U A40C U55A C96U G126A C132U G143U | ≤ -4.2
A19C G62A C85A A137U U151A | ≤ -4.2
A20C | -0.413
A20C C51G C95G C149U | ≤ -4.2
C18U C32U A41G G48A G68C C87U G94U A107G C149A A150G | ≤ -4.2
C18U U31C A89C C93A G140U | ≤ -4.2
A20C G88A | -3.56
A20C A41U G50A U90A C93U | ≤ -4.2
A19G U53A A91G C95U U104A A121C G126C U135G | ≤ -4.2
A19U C38G C43G G80C C87U C149G | ≤ -4.2
C18G U55A C85G | -2.84
A19U A28U G83C | ≤ -4.2
A20C A40C C103U U145C | -0.185
C18U A40U C85U C96U C116U | 0.0691
A19G A26U C36G A73U C87A G88C A97G | ≤ -4.2
A19G U44G C63U C76G C103A C125A | ≤ -4.2
A17U U61G C76G | ≤ -4.2
